One substance from article PMC4161474 can be followed below.

Assay in all cases: co-IP; HEK293 cells co-transfected with Flag-HBx wt or alanine substitution mutants and His-myc-Spin1; precipitated with anti-Flag antibodies, anti-Myc and anti-Flag blots quantified with the Odyssey system; signal normalised to HBx in the IP/HBx in the input, Flag-HBx wt set to 100% (Figure 1C)
The target of assay [1] is Flag-HBx Cm13, clustered alanine substitution mutant (Hepatitis B virus) (UniProt P69713).
For assay [2], the target named is Flag-HBx Cm5, clustered alanine substitution mutant (Hepatitis B virus) (UniProt P69713).
The target in assay [3] is Flag-HBx Cm7, clustered alanine substitution mutant (Hepatitis B virus) (UniProt P69713).
Assay [4] concerns the target Flag-HBx Cm8, clustered alanine substitution mutant (Hepatitis B virus) (UniProt P69713).
The target in assay [5] is Flag-HBx Cm9, clustered alanine substitution mutant (Hepatitis B virus) (UniProt P69713).

Consider “His-Myc-Spindlin1 (from UniProt Q9Y657 1-262) (natural protein)”, for which the percent of Spindlin1 immunoprecipitated (Flag-HBx wt = 100%) in assay [1] was found to be 29%; in assay [2], 10%; in assay [3] it was 13%; in assay [4] it was 52%; in assay [5], 28%.
